From paper PMC12021450

What was measured:
[1] = biological target: Trypanosoma brucei MSC-associated protein 1 (MCP1), wild type, His6-tagged (Trypanosoma brucei); assay: mass photometry; protein alone, 50 nM final in 50 mM HEPES-KOH pH 7.6, 50 mM NaCl, 2 mM MgCl2, 0.5 mM TCEP; pre-incubated at 2 uM at room temperature for 10 min; no tRNA; monomer to dimer
[2] = biological target: Trypanosoma brucei MSC-associated protein 1 (MCP1), wild type, His6-tagged (Trypanosoma brucei); assay: mass photometry; 50 nM protein with 25 nM tRNA^Ala (complex formed at 2 uM protein : 1 uM tRNA^Ala, room temperature, 10 min) in 50 mM HEPES-KOH pH 7.6, 50 mM NaCl, 2 mM MgCl2, 0.5 mM TCEP; monomer to dimer

Substance: Trypanosoma brucei MSC-associated protein 1 (MCP1), wild type, His6-tagged (natural protein)
- percent of the protein population that is dimeric [1]: 17%
- stoichiometry N [1]: 2
- percent of the species in the dimer peak, with tRNA^Ala [2]: 31%
- stoichiometry N [2]: 2
